Assays:
[1] = target: biotinylated recombinant ESO157/HLA-A*02:05 complex (human); test: BLI (Octet QK), biotinylated pMHC on streptavidin sensor, BsAb 10 ug/mL
[2] = target: biotinylated recombinant ESO157/HLA-A*02:06 complex (human); test: as above
[3] = target: biotinylated recombinant ESO157/HLA-A*02:11 complex (human); test: as above
[4] = target: biotinylated recombinant ESO157/HLA-A*02:03 complex (human); test: as above
[5] = target: biotinylated recombinant ESO157/HLA-A*02:02 complex (human); test: as above
[6] = target: T1, Bio-C9V mutant; test: phage ELISA: streptavidin plate coated with biotinylated peptide/HLA-A*02:01 monomer, phage detected with HRP-conjugated anti-M13 antibody, absorbance at 450 nm
T1 construct: also called biotinylated ESO157 C9V/HLA-A*02:01 complex monomer

[7] = target: ESO157 A8 peptide (…)/HLA-A*02:01 complex on T2 cells (human); test: FACS, peptide-pulsed T2 cells
[8] = target: ESO157 A5 peptide (…)/HLA-A*02:01 complex on T2 cells (human); test: FACS, peptide-pulsed T2 cells
[9] = target: ESO157 A1 peptide (…)/HLA-A*02:01 complex on T2 cells (human); test: FACS, peptide-pulsed T2 cells
[10] = target: T2, ESO157 wild type peptide (…)/HLA-A*02:01 complex on cells (human); test: FACS, peptide-pulsed T2 cells
T2 construct: also called ESO157-loaded T2 cells

[11] = target: ESO157 A4 peptide (…)/HLA-A*02:01 complex on T2 cells (human); test: FACS, peptide-pulsed T2 cells
[12] = target: ESO157 A6 peptide (…)/HLA-A*02:01 complex on T2 cells (human); test: FACS, peptide-pulsed T2 cells
[13] = target: ESO157 A3 peptide (…)/HLA-A*02:01 complex on T2 cells (human); test: FACS, peptide-pulsed T2 cells
[14] = target: ESO157 A7 peptide (…)/HLA-A*02:01 complex on T2 cells (human); test: FACS, peptide-pulsed T2 cells
[15] = target: T3, HLA-A*02:01 on T2 cells without peptide loading (human); test: FACS, peptide-pulsed T2 cells
T3 construct: TAP-deficient T2 cells, no peptide added; also called No peptide; T2 cells with no peptide loaded

[16] = target: T4, biotinylated recombinant ESO157 wild type peptide/HLA-A*02:01 complex monomer (human); test: SPR (Biacore X100), biotinylated pMHC on streptavidin chip, BsAb as analyte
T4 construct: also called recombinant ESO157/HLA-A*02:01 complex; biotin-labelled ESO157 wild type peptide/HLA-A*02:01 complex

[17] = target: biotinylated recombinant ESO157/HLA-A*02:02 complex (human); test: BLI (Octet QK), biotinylated pMHC on streptavidin sensor, BsAb 10 ug/mL; remark: listed apart in the source
[18] = target: biotinylated recombinant ESO157/HLA-A*02:05 complex (human); test: as above; remark: listed apart in the source

Row | Binder | Kd [1] | Kd [2] | Kd [3] | Kd [4] | Kd [5] | Kd [16] | koff [16] | kon [16] | Kd [17] | also measured
1 | ESO157 BsAb #76 (anti-ESO157/HLA-A*02:01 scFv x anti-human CD3epsilon scFv, single chain) (bispecific antibody) QSVVTQPPSLSGAPGQRVTISCNGSGSNIGAGYDVHWYQQLPGTAPKLLIYGNSNRPSGVPDRFSGSKSGTSASLAITGLQAEDEADYYCQSYDSSLSGWGIFGGGTKLTVLGSRGGGGSGGGGSGGGGSLEMAEVQLVQSGAEVKKPGSSVKVSCKASGGTFSSYAISWVRQAPGQGLEWMGGIIPIFGTANYAQKFQGRVTITADESTSTAYMELSSLRSEDTAVYYCARYDSYVYDEWGQGTLVTVSS | 40 nM | 126 nM | 97 nM | 47 nM | 34 nM |  |  |  |  | 
2 | ESO157 BsAb #66 (anti-ESO157/HLA-A*02:01 scFv x anti-human CD3epsilon scFv, single chain) (bispecific antibody) QSVLTQPPSVSGAPGQRVTISCTGSSSNIGAGYDVHWYQQLPGTAPKLLIYGNSNRPSGVPDRFSGSKSGTSASLAITGLQAEDEADYYCQSYDSSLSGSWVFGGGTKLTVLGSRGGGGSGGGGSGGGGSLEMAEVQLVESGAEVKRPGASVKVSCKASGYTFTSYGISWVRQAPGQGLEWMGRFIPNLNKGNSAHKFEGRVSFTADKFTNTAYMELRGLKSDDTAVYYCARGDYGSDQWGQGTLVTVSS | 33 nM | 58 nM | 48 nM | 47 nM | 25 nM |  |  |  |  | 
3 | phage clone #116, anti-ESO157/HLA-A*02:01 scFv displayed on phage (scFv, V domains shown) VH: QVQLVQSGPEVKKPGASMKVSCKASGYTFTKYGISWVRQAPGQGLEWMGWISADSGKTSYAQNLQGRVSLTIDTSTATAYMELRSLRSDDTAVYYCARDDDSWGQGTLVTVSS VL: QSVLTQPPSVSAAPGQKVTISCSGSSSNIGNNYVSWYQQLPGTAPKLLIYDNNKRPSGIPDRFSGSKSGTSATLGITGLQTGDEADYYCGTWDSSLSAEVFGTGTKVTVLG |  |  |  |  |  |  |  |  |  | binding result [6]: binds; MFI [7]: 3400; MFI [8]: 1340; MFI [9]: 19600; MFI [10]: 11300; MFI [11]: 1150; MFI [12]: 2640; MFI [13]: 16500; MFI [14]: 14400; MFI [15]: 502
4 | ESO157 BsAb #148 (anti-ESO157/HLA-A*02:01 scFv x anti-human CD3epsilon scFv, single chain) (bispecific antibody, V domains shown, not shown: small tags and cut ends) VH: EVQLVQSGAEVKKPGASVKVSCKASGGTFSSYAISWVRQAPGQGLEWMGGIIPIFGTANYAQKFQGRVTITADKSTSTAYMELSSLRSEDTAVYYCARSYWSWTPYDPWGQGTLVTVSS VL: LPVLTQPPSVSVAPGKTARITCGGNNIGSKSVHWYQQKPGQAPVLVIYYDSDRPSGIPERFSGSNSGNTATLTISRVEAGDEADYYCQVWDSSSDHYVFGTGTKVTVL |  | 224 nM |  | 85 nM |  | 6 nM | 0.000902 s⁻¹ | 151000 M⁻¹ s⁻¹ | 19 nM | Kd [18]: 18 nM
5 | ESO157 BsAb #35 (anti-ESO157/HLA-A*02:01 scFv x anti-human CD3epsilon scFv, single chain) (bispecific antibody, not shown: small tags and cut ends, also called NY-ESO-1 BsAb #35) scFv: QSVVTQPPSVSAAPGQKVTISCSGSSSNIGNNYVSWYQQLPGTAPKLLIYDNNKRPSGIPDRFSGSKSGTSATLGITGLQTGDEADYYCGTWDSSLSAWVFGGGTKLTVLGSRGGGGSGGGGSGGGGSLEMAQVQLVQSGAEVKKPGSSVKVSCKASGDTFSSYSISWVRQAPGQGLEWMGRIIPILGIANYAQKYQGRVTLSADKSTSTSYMELNSLRSEDTAVYYCARDWSYSIDYWGQGTLVTVSS |  | 78 nM |  | 50 nM |  | 14.1 nM | 0.00128 s⁻¹ | 90900 M⁻¹ s⁻¹ | 22 nM | 
6 | ESO157 BsAb #52 (anti-ESO157/HLA-A*02:01 scFv x anti-human CD3epsilon scFv, single chain) (bispecific antibody) QSVLTQPPSVSGAPGQRVTISCTGSSSNIGAGYDVHWYQQLPGTAPKLLIYGDTNRPSGVPDRISGSKSGTSASLAITGLQAEDEADYYCQSYDSNLYTYVFGTGTKVTVLGSRGGGGSGGGGSGGGGSLEMAQVQLVQSGAEVKKPGASVKVSCKASGYTFTSYGISWVRQAPGQGLEWMGWISAYNGNTNYAQKLQGRVTMTTDTSTSTAYMELRSLRSDDTAVYYCARYSGYYAGDSWGQGTLVTVSS | 26 nM | 140 nM |  | 82 nM | 63 nM |  |  |  |  | 

From patent US20190382504A1 (EUREKA THERAPEUTICS, published 2019)
